This is an account of results in paper PMC10900128 (Chembiochem : a European journal of chemical biology, 2018).

*: point of attachment. FITC = O=C1OC2(c3ccc(O)cc3Oc3cc(O)ccc32)c2ccc(NC(=S)*)cc21; βAla = NCCC(=O)O

The experiment deals with T1, FITC-MLL peptide (SMILES …).
T1 peptide: {FITC-βAla}-DAGNILPSDIMDFVLKNTP-NH2
The experiment is described as follows: fluorescence polarisation. For orientation: Polarisation of emitted light reports the rotation of a fluorescent probe.

B1: GACKIX N627C (GACKIX domain of mouse CBP, residues 586–672, N627C mutant), unlabeled (domain or fragment)
chain: not shown
In the case of B1, the binding result is “binds”.
